In experiment [1] the target is recombinant Srr2 binding region (rSrr2-BR) (Streptococcus agalactiae (GBS) strain BM110) (UniProt Q3S2Y8). The experiment can be described thus: ELISA; Srr2 proteins coated on microtiter wells (1 ug/well, 0.1 M sodium carbonate pH 9.5); soluble Fn (up to 240 nM) or Fbg (up to 7.5 nM) for 1 h; detected with mouse anti-Fn or anti-Fbg IgG; apparent Kd; in a further set increasing NaCl (0 to 1 M) strongly impaired the binding to rSrr2-BR.

For experiment [2] the target is unchanged. The experiment can be described thus: SPR; rSrr2 proteins amine-coupled to a CM5 chip (Biacore X-100); Fn injected; 25 °C, HEPES-EP+ pH 7.4, 0.15 M NaCl, 30 uL/min; steady-state fit, 1:1 model. A general note: In SPR one partner is held on a chip, and binding of the other changes the refractive index at the surface.
Experiment [3] addresses human plasma fibronectin (Fn) (human). As to the kind of experiment: ELISA; apparent; soluble Srr2-BR on immobilized Fn. Background: In an ELISA, binding on a coated surface is turned into a signal by an enzyme label.
Another experiment deals with human fibrinogen (Fbg) (human, UniProt P02671 36-866); P02675 45-491; P02679 27-453, Plasma-derived, disulfide-linked hexamer, glycosylated. Chains are the circulating forms by convention: A-alpha 610 aa, B-beta 461 aa, gamma-A 411 aa (the canonical P02679 sequence is gamma-B, so gamm). The experiment can be described thus: ELISA; Srr2 proteins coated on microtiter wells (1 ug/well, 0.1 M sodium carbonate pH 9.5); soluble Fn (up to 240 nM) or Fbg (up to 7.5 nM) for 1 h; detected with mouse anti-Fn or anti-Fbg IgG; apparent Kd; in a further set increasing NaCl (0 to 1 M) strongly impaired the binding to rSrr2-BR. The settings on record: both partners purified.

Sequence of human plasma fibronectin (Fn) (human) (P02751 other isoform, or with tags, fused parts or gaps, chain 1 of 2): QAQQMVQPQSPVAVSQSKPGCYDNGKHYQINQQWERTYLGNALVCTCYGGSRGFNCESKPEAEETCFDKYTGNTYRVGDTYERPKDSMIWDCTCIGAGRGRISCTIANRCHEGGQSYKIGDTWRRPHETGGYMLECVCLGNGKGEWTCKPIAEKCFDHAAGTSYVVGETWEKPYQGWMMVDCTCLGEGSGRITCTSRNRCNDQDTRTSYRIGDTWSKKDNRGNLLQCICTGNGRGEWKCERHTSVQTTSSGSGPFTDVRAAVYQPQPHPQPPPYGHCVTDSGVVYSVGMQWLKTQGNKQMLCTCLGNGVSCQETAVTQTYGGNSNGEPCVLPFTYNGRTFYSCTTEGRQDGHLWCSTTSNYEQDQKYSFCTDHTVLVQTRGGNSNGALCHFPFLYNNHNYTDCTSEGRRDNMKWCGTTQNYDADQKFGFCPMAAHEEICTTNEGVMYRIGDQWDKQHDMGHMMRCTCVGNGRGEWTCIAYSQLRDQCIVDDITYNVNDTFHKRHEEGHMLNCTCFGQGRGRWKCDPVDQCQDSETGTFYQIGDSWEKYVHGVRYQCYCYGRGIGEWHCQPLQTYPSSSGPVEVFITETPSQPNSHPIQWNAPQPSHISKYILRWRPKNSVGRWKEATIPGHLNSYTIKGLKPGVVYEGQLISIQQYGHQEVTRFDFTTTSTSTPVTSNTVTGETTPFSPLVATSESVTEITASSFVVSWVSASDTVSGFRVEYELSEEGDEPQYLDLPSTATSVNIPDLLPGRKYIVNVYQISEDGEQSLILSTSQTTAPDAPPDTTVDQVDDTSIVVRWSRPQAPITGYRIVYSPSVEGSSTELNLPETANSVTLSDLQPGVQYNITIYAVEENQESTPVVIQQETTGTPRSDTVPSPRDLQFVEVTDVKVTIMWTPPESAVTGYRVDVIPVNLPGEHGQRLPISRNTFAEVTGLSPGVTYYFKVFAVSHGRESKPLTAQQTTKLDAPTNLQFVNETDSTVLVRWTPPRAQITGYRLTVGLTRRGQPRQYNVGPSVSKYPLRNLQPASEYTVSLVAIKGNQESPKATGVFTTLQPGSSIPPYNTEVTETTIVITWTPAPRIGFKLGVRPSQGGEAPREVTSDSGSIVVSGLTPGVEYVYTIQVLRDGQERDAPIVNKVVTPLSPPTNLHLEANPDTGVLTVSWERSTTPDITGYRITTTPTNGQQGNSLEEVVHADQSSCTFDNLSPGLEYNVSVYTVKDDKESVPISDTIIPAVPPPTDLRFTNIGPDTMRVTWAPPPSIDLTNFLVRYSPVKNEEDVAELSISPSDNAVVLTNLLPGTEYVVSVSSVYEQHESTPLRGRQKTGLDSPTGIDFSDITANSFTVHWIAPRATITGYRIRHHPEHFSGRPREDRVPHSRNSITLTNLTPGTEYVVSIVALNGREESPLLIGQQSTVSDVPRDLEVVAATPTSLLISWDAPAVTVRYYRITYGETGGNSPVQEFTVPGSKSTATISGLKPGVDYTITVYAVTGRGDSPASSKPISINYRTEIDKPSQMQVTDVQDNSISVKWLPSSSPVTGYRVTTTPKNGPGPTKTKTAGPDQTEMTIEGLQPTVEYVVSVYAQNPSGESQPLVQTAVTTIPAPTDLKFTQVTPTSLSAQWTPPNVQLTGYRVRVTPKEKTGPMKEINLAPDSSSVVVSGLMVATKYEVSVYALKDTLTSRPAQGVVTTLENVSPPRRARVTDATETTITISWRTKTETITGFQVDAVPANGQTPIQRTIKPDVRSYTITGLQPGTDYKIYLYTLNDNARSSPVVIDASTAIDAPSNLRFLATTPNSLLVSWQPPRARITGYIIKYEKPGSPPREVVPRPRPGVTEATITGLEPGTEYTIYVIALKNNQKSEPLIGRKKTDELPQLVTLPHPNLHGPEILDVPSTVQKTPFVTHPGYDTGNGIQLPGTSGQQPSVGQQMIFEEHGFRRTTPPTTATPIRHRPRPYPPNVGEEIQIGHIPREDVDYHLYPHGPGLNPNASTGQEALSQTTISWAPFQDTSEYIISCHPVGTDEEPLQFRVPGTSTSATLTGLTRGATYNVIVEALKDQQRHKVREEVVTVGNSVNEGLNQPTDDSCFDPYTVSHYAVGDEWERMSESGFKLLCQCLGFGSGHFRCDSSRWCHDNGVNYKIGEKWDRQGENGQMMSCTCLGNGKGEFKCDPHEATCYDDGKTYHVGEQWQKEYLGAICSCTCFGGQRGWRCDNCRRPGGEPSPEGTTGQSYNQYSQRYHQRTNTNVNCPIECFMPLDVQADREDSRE
Sequence of human plasma fibronectin (Fn) (human) (P02751 other isoform, or with tags, fused parts or gaps, chain 2 of 2): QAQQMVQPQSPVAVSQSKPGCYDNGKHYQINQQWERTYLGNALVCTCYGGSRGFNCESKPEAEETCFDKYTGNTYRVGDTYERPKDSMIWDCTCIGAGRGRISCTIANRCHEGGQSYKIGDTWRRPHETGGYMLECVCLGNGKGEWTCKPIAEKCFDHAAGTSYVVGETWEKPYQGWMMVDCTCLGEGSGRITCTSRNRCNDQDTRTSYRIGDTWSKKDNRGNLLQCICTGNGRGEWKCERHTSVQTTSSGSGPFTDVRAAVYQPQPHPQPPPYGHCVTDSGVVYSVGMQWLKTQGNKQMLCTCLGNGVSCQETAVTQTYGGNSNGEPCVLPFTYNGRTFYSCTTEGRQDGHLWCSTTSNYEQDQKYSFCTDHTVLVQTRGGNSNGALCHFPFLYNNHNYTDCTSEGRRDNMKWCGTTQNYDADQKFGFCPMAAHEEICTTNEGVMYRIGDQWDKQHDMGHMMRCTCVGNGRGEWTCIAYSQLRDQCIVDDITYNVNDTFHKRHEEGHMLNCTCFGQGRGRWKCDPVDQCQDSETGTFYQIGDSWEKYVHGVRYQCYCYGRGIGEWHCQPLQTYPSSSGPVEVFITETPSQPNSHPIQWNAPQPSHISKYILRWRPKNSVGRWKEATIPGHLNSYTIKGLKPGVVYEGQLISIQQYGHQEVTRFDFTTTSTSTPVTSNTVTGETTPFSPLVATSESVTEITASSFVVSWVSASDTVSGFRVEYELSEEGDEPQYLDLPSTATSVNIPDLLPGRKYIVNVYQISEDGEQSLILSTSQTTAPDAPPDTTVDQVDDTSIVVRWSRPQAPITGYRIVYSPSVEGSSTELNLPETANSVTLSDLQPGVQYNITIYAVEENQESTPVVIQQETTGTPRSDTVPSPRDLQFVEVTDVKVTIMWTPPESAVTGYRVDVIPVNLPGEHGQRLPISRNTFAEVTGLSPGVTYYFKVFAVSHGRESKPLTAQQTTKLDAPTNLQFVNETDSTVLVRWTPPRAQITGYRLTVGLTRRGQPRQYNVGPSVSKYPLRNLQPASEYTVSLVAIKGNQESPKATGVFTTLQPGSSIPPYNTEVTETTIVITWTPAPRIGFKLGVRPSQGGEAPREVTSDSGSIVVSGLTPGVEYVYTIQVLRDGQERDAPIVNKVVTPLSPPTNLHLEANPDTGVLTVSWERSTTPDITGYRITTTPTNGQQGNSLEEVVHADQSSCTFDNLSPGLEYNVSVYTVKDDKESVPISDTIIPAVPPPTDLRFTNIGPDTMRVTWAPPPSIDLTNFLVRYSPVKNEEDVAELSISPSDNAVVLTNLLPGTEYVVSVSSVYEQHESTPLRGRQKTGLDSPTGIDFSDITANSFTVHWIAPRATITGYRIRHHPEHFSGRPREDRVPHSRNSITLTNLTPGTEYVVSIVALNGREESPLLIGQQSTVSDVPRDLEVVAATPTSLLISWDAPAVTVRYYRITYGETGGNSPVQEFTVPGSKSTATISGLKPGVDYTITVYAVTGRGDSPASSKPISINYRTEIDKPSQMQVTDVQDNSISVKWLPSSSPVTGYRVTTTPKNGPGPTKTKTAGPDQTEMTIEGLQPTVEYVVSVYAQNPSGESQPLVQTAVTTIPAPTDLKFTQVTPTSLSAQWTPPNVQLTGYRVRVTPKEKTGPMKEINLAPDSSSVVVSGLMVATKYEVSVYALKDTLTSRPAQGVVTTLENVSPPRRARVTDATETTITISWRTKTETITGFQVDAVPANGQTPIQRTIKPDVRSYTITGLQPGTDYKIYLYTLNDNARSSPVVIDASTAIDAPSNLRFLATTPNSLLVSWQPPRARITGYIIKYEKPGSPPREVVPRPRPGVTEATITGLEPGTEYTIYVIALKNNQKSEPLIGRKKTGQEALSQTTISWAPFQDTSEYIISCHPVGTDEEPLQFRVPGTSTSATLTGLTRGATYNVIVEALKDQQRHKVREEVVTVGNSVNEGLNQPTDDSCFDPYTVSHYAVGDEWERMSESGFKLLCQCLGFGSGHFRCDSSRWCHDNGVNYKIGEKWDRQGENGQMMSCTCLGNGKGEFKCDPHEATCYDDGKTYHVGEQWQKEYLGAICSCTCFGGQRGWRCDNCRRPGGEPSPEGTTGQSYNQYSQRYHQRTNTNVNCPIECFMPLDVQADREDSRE

As to “human plasma fibronectin (Fn) (natural protein)”, the Kd in experiment [1] is 30 nM; in experiment [2] it was 92 nM.

B1: recombinant Srr2 binding region (rSrr2-BR) (domain or fragment)
chain: EAATTARVQPRAMRVVSSASDMETLPAALISGEGDVTTVQGQDVTDKLQNLDIKLSGGVQAKAGVINMDKSESMHMSLKFTIDSVNRGDTFEIKLSDNIDTNGASNYSIVEPIKSPTGEVYATGIYDSQKKSIVYSFTDFAASKNNINGILDIPLWPDDTTVQNTKEDVLFSVKIKDQEATIKETVKYDPPVRIDFAGGVSVDSRITNIDDVGKKMTYISQINVDGKSLYNYNGLYTRIYNYSKESTADLKNSTIKIYKTTSDNIVESMVQDYSSMEDVTSKFANSYPEKGWYDIYWGQFIASNETYVIVVETPFTNAVTLNTTLSDYNENNGVEHNHTYSSESGYSDVNAQ
For B1, the figures for the Kd (in experiment [3]; with human fibrinogen (Fbg)) were 629 nM and 0.45 ± 0.02 nM, respectively.

The values above are taken from publication PMC11193222, “The serine-rich repeat glycoprotein Srr2 mediates Streptococcus agalactiae interaction with host fibronectin” (BMC Microbiology, 2024).
